System: Escherichia coli TOP10
Assay: shrunken log2 fold change of peptide-encoding DNA abundance (4.5 h post-induction vs induction); higher = less antimicrobial activity (less host growth inhibition)
Conditions: time post-induction: 4.5 h; library: site-saturation at positions 5, 18, 19, 20
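Also: peptides expressed intracellularly from a pBAD plasmid library in pooled LB shake-flask culture, induced with 0.3% L-arabinose, DNA abundance read by NGS, three biological replicates, DESeq2 with apeglm shrinkage.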

Row | Sequence | shrunken log2 fold change
1 | RRIRRRPPRLPRPRPRPHDSPRP | -0.0547
2 | RRIRFRPPRLPRPRPRPWMLPRP | -0.277
3 | RRIRARPPRLPRPRPRPVNQPRP | -0.0386
4 | RRIRCRPPRLPRPRPRPIYDPRP | -0.867
5 | RRIRARPPRLPRPRPRPMSCPRP | -0.114
6 | RRIRVRPPRLPRPRPRPARFPRP | 0.16
7 | RRIRRRPPRLPRPRPRPQHMPRP | -0.296
8 | RRIRNRPPRLPRPRPRPPCVPRP | 0.0341
9 | RRIRPRPPRLPRPRPRPEDKPRP | 0.163
10 | RRIRERPPRLPRPRPRPRTEPRP | -0.0166
11 | RRIRIRPPRLPRPRPRPFIWPRP | -0.242
12 | RRIRLRPPRLPRPRPRPCSYPRP | -0.259
13 | RRIRTRPPRLPRPRPRPVKWPRP | -0.0599
14 | RRIRVRPPRLPRPRPRPYHQPRP | 0.00427
15 | RRIRDRPPRLPRPRPRPGFKPRP | 0.0624
16 | RRIRFRPPRLPRPRPRPYRTPRP | -0.165
17 | RRIRRRPPRLPRPRPRPWFGPRP | -0.161
18 | RRIRSRPPRLPRPRPRPFMAPRP | -0.497
19 | RRIRLRPPRLPRPRPRPFIGPRP | -0.305
20 | RRIRFRPPRLPRPRPRPRWCPRP | 0.14
21 | RRIRARPPRLPRPRPRPTRIPRP | 2.82
22 | RRIRERPPRLPRPRPRPCPQPRP | -0.232
23 | RRIRPRPPRLPRPRPRPGCPPRP | 0.0239
24 | RRIRNRPPRLPRPRPRPTDIPRP | -0.296
25 | RRIRQRPPRLPRPRPRPPHCPRP | 0.0459

Row | Sequence | shrunken log2 fold change
26 | RRIRTRPPRLPRPRPRPGWVPRP | -0.0236
27 | RRIRQRPPRLPRPRPRPYDLPRP | -0.0546
28 | RRIRGRPPRLPRPRPRPHRTPRP | 0.271
29 | RRIRIRPPRLPRPRPRPCIDPRP | -0.0398
30 | RRIRIRPPRLPRPRPRPPGPPRP | 0.575
31 | RRIRNRPPRLPRPRPRPFMKPRP | -0.0163
32 | RRIRSRPPRLPRPRPRPIHDPRP | -0.128
33 | RRIRSRPPRLPRPRPRPGAMPRP | 0.724
34 | RRIRVRPPRLPRPRPRPRGLPRP | 0.307
35 | RRIRNRPPRLPRPRPRPFVYPRP | -0.0264
36 | RRIRDRPPRLPRPRPRPRYRPRP | -0.101
37 | RRIRARPPRLPRPRPRPAADPRP | 1.13
38 | RRIRNRPPRLPRPRPRPCCGPRP | -0.148
39 | RRIRKRPPRLPRPRPRPSHWPRP | 0.275
40 | RRIRQRPPRLPRPRPRPHVHPRP | -0.124
41 | RRIRLRPPRLPRPRPRPLMLPRP | -0.257
42 | RRIRMRPPRLPRPRPRPRFTPRP | 0.323
43 | RRIRVRPPRLPRPRPRPRFNPRP | -0.264
44 | RRIRFRPPRLPRPRPRPQLFPRP | 0.104
45 | RRIRLRPPRLPRPRPRPQMYPRP | -0.115
46 | RRIRDRPPRLPRPRPRPDGIPRP | -0.0113
47 | RRIRTRPPRLPRPRPRPVPRPRP | 0.315
48 | RRIRNRPPRLPRPRPRPRCTPRP | -0.263
49 | RRIRARPPRLPRPRPRPGLCPRP | 0.553
50 | RRIRPRPPRLPRPRPRPLQHPRP | -0.17

Row | Sequence | shrunken log2 fold change
51 | RRIRTRPPRLPRPRPRPAQKPRP | -0.00259
52 | RRIRQRPPRLPRPRPRPESDPRP | 0.319
53 | RRIRPRPPRLPRPRPRPVQNPRP | -0.234
54 | RRIRTRPPRLPRPRPRPIYPPRP | -0.243
55 | RRIRHRPPRLPRPRPRPMRIPRP | -0.00172
56 | RRIRQRPPRLPRPRPRPCCAPRP | 0.0773
57 | RRIRTRPPRLPRPRPRPNNDPRP | -0.797
58 | RRIRHRPPRLPRPRPRPDKEPRP | -0.00149
59 | RRIRVRPPRLPRPRPRPGCQPRP | -0.0161
60 | RRIRLRPPRLPRPRPRPAWSPRP | 0.103
61 | RRIRRRPPRLPRPRPRPKMPPRP | 0.191
62 | RRIRRRPPRLPRPRPRPAIRPRP | -0.0892
63 | RRIRLRPPRLPRPRPRPHFYPRP | -0.303
64 | RRIRGRPPRLPRPRPRPSAHPRP | 1.12
65 | RRIRCRPPRLPRPRPRPTYCPRP | -0.279
66 | RRIRLRPPRLPRPRPRPTPGPRP | 0.557
67 | RRIRQRPPRLPRPRPRPGNNPRP | -0.54
68 | RRIRDRPPRLPRPRPRPPQDPRP | 0.811
69 | RRIRTRPPRLPRPRPRPIYLPRP | -0.224
70 | RRIRQRPPRLPRPRPRPCERPRP | -0.0133
71 | RRIRIRPPRLPRPRPRPSVIPRP | -0.661
72 | RRIRYRPPRLPRPRPRPAMSPRP | -0.0191
73 | RRIRCRPPRLPRPRPRPDQTPRP | -0.00778
74 | RRIRRRPPRLPRPRPRPNEHPRP | -0.118
75 | RRIRPRPPRLPRPRPRPTVGPRP | 0.555

Row | Sequence | shrunken log2 fold change
76 | RRIRLRPPRLPRPRPRPPCWPRP | 0.16
77 | RRIRHRPPRLPRPRPRPTDTPRP | -0.116
78 | RRIRARPPRLPRPRPRPCLNPRP | -0.424
79 | RRIRFRPPRLPRPRPRPDCRPRP | -0.309
80 | RRIRMRPPRLPRPRPRPGDYPRP | 0.0762
81 | RRIRYRPPRLPRPRPRPAPQPRP | 0.416
82 | RRIRFRPPRLPRPRPRPIKGPRP | -0.248
83 | RRIRLRPPRLPRPRPRPIHPPRP | -0.168
84 | RRIRHRPPRLPRPRPRPPFDPRP | -0.178
85 | RRIRCRPPRLPRPRPRPGSVPRP | 0.102
86 | RRIRKRPPRLPRPRPRPRESPRP | 0.159
87 | RRIRHRPPRLPRPRPRPWKNPRP | -0.187
88 | RRIRPRPPRLPRPRPRPQTDPRP | -0.0886
89 | RRIRVRPPRLPRPRPRPDNGPRP | 0.0214
90 | RRIRDRPPRLPRPRPRPFFRPRP | -0.0152
91 | RRIRPRPPRLPRPRPRPAISPRP | -0.103
92 | RRIRGRPPRLPRPRPRPFESPRP | 0.0306
93 | RRIRERPPRLPRPRPRPEDYPRP | 0.00235
94 | RRIRVRPPRLPRPRPRPQQWPRP | 0.0185
95 | RRIRMRPPRLPRPRPRPDIVPRP | 0.0138
96 | RRIRRRPPRLPRPRPRPPECPRP | 0.222
97 | RRIRARPPRLPRPRPRPGPAPRP | 0.873
98 | RRIRGRPPRLPRPRPRPNVYPRP | 0.205
99 | RRIRGRPPRLPRPRPRPNNDPRP | 0.247
100 | RRIRQRPPRLPRPRPRPLGTPRP | 0.139

Row | Sequence | shrunken log2 fold change
101 | RRIRRRPPRLPRPRPRPHCFPRP | 0.118
102 | RRIRIRPPRLPRPRPRPLRKPRP | 0.00781
103 | RRIRLRPPRLPRPRPRPTGIPRP | -0.182
104 | RRIRCRPPRLPRPRPRPYWDPRP | -1.1
105 | RRIRERPPRLPRPRPRPDQAPRP | -0.00195
106 | RRIRRRPPRLPRPRPRPKELPRP | 0.166
107 | RRIRNRPPRLPRPRPRPFTKPRP | -0.0763
108 | RRIRFRPPRLPRPRPRPENPPRP | -0.0301
109 | RRIRSRPPRLPRPRPRPCLPPRP | -0.133
110 | RRIRIRPPRLPRPRPRPNHNPRP | -0.518
111 | RRIRQRPPRLPRPRPRPDHHPRP | -0.308
112 | RRIRDRPPRLPRPRPRPQWHPRP | -0.292
113 | RRIRIRPPRLPRPRPRPDQSPRP | -0.138
114 | RRIRGRPPRLPRPRPRPTVCPRP | 0.798
115 | RRIRHRPPRLPRPRPRPPAMPRP | 0.0064
116 | RRIRCRPPRLPRPRPRPSHYPRP | -0.349
117 | RRIRARPPRLPRPRPRPHSTPRP | 0.0355
118 | RRIRHRPPRLPRPRPRPHFTPRP | -0.67
119 | RRIRFRPPRLPRPRPRPHPDPRP | -0.262
120 | RRIRWRPPRLPRPRPRPQCNPRP | -0.0929
121 | RRIRCRPPRLPRPRPRPMRTPRP | 0.962
122 | RRIRTRPPRLPRPRPRPKVRPRP | 0.0294
123 | RRIRRRPPRLPRPRPRPESTPRP | 0.571
124 | RRIRDRPPRLPRPRPRPCPCPRP | -0.478
125 | RRIRKRPPRLPRPRPRPTDGPRP | 0.396

Row | Sequence | shrunken log2 fold change
126 | RRIRKRPPRLPRPRPRPCQHPRP | -0.167
127 | RRIRHRPPRLPRPRPRPRNNPRP | -0.493
128 | RRIRTRPPRLPRPRPRPQMFPRP | 0.0287
129 | RRIRSRPPRLPRPRPRPHTWPRP | -0.0472
130 | RRIRNRPPRLPRPRPRPNSNPRP | -0.744
131 | RRIRDRPPRLPRPRPRPTDWPRP | 0.516
132 | RRIRTRPPRLPRPRPRPICCPRP | 0.0718
133 | RRIRVRPPRLPRPRPRPEEQPRP | 0.0234
134 | RRIRMRPPRLPRPRPRPKSQPRP | 2.06
135 | RRIRPRPPRLPRPRPRPKTWPRP | 0.0474
136 | RRIRRRPPRLPRPRPRPRNPPRP | 0.345
137 | RRIRFRPPRLPRPRPRPTENPRP | -0.115
138 | RRIRQRPPRLPRPRPRPEPSPRP | 0.102
139 | RRIRNRPPRLPRPRPRPYCWPRP | -0.425
140 | RRIRWRPPRLPRPRPRPNCKPRP | -0.0223
141 | RRIRHRPPRLPRPRPRPWLLPRP | -0.397
142 | RRIRWRPPRLPRPRPRPYCPPRP | -0.441
143 | RRIRTRPPRLPRPRPRPDFWPRP | 0.413
144 | RRIRFRPPRLPRPRPRPIGVPRP | -0.0194
145 | RRIRVRPPRLPRPRPRPLRSPRP | 0.132
146 | RRIRHRPPRLPRPRPRPKHEPRP | -0.156
147 | RRIRFRPPRLPRPRPRPLPAPRP | 0.51
148 | RRIRARPPRLPRPRPRPWIIPRP | -0.0127
149 | RRIRTRPPRLPRPRPRPFMCPRP | -0.126
150 | RRIRWRPPRLPRPRPRPNHMPRP | -0.227
